Reference: US7888089B2, “eNOS mutations useful for gene therapy and therapeutic screening” (Yale University, priority 1999, dated 2011)

What was measured:
COS-7 cells = test: NO release (NO2−, chemiluminescence) from transfected COS cells; assay type: cell-based; settings: for Akt dependent NO release / activation of NOS construct: NOS construct co-transfected with Akt; for NO2− accumulation on co-transfection with eNOS: Akt construct co-transfected with eNOS, FIG. 1A
Description: Cell Transfections: The bovine eNOS, human iNOS, rat nNOS cDNAs in pcDNA3 and HA-tagged wild-type Akt, Akt (K179M) or myr-Akt in pCMV6 were generated by standard cloning methods. The myr-nNOS in pcDNA3 was generated by PCR, incorporating a new amino terminus containing the eNOS N-myristoylation consensus site (MGNLKSVG, SEQ ID NO:1) fused in frame to the second amino acid of the nNOS coding sequence. […] Mutation of the putative Akt phosphorylation sites in eNOS were generated using the Quick Change site-directed mutagenesis kit (Stratagene) according to the manufacturers instructions. All mutants were verified by DNA sequencing. COS-7 cells were plated (100 mm dish) and transfected with the NOS (7.5-30 mg) and Akt (1 mg) plasmids using calcium phosphate. To balance all transfections, the expression vector for β-galactosidase cDNA was used. Twenty-four to forty-eight hours after transfection, the expression of appropriate proteins (40-80 mg) were confirmed by Western blot analysis using eNOS mAb (9D10, Zymed), HA mAb (12CA5, Boehringer Mannheim), iNOS pAb (Zymed Laboratories) or nNOS mAb (Zymed Laboratories).
NO release from transfected COS cells: 24-48 hrs after transfection, media was processed for the measurement of nitrite (NO2^−), the stable breakdown product of NO in aqueous solution, by NO specific chemiluminescence as described (Sessa et al., 1995). Media was deproteinized and samples containing NO2^− were refluxed in glacial acetic acid containing sodium iodide. […] In all experiments, NO2^− release was inhibitable by a NOS inhibitor. In addition, NO2^−-release from cells transfected with the β-galactosidase cDNA was subtracted to control for background levels of NO2^− found in serum or media. In some experiments, cGMP accumulation in COS was used as a bioassay for the production of NO as described.

Akt [1] = test: In vitro kinase reaction with Akt immunoprecipitated from COS cells; assay type: biochemical; settings: immunoprecipitated kinase
eNOS = test: NOS activity (3H-L-arginine to 3H-L-citrulline) in COS cell lysates; assay type: biochemical, bovine; settings: COS cells transfected with eNOS only, n=3
Description: NOS activity assays: The conversion of ^3H-L-arginine to ^3H-L-citrulline was used to determine NOS activity in COS cell or endothelial cell lysates as previously described by Garcia-Cardena et al. (1998).

Akt [2] = test: 32P phosphorylation of eNOS in intact transfected COS cells; assay type: cell-based; settings: eNOS/Akt transfected COS cells; wortmannin 500 nM
Experimental: Phosphorylation studies in vivo and in vitro: For in vivo phosphorylation studies, COS cells were transfected with the cDNAs for wild-type or S635, 1179A eNOS and HA-Akt overnight. 36 hrs after transfection, cells were placed into dialyzed serum replete, phosphate-free Dulbecco's minimum essential medium supplemented with 80 μCi/ml of ^32P orthophosphoric acid for 3 hr. Some cells were pretreated with wortmannin (500 nM) in the phosphate-free media for 1 hr and during the labeling.

Akt [3] = target: T1, Akt (Homo sapiens, UniProt P31749); test: In vitro phosphorylation of purified eNOS by recombinant Akt; assay type: biochemical; settings: FIG. 2D
T1 construct: host or cells: baculovirus-infected SF9 cells (Akt); peptides synthesized at the W. M. Keck Biotechnology Resource Center
T1 sequence (P31749 whole entry): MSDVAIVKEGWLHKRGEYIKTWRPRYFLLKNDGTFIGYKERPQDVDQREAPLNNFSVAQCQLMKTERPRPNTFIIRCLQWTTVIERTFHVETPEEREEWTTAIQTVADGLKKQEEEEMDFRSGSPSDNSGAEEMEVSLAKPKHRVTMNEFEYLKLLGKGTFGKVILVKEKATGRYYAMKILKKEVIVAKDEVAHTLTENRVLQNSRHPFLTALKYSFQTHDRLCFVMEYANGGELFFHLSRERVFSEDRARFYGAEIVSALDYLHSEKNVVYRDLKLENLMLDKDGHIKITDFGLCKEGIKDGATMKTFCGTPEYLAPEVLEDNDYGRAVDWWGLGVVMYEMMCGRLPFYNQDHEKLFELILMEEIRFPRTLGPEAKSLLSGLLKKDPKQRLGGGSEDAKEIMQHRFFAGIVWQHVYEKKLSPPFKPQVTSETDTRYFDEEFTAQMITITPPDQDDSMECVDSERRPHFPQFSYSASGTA
Experimental: In experiments examining the in vitro phosphorylation of wild-type and mutant eNOS, recombinant Akt (1 mg) purified from baculovirus infected SF9 cells, was incubated with wild-type or S1179A eNOS (2.4 mg, purified from E. coli) using essentially the same conditions as above. Proteins were resolved by SDS-PAGE and ^32P incorporation and the amount of protein determined by Coomassie staining as above.

## iNOS: human inducible NOS [reference compound]
COS-7 cells
  Akt dependent NO release / activation of NOS construct: did not result in a further increase in NO release

## kinase inactive Akt: kinase inactive Akt (K179M) [reference compound]
Akt [1]
  histone or eNOS phosphorylation by Akt variant: did not significantly increase histone or eNOS phosphorylation
COS-7 cells
  NO2− accumulation on co-transfection with eNOS: not

## myr-nNOS: nNOS with new amino terminus containing the eNOS N-myristoylation consensus site (MGNLKSVG)
COS-7 cells
  Akt dependent NO release / activation of NOS construct: results in Akt stimulation of nNOS

## nNOS: rat neuronal NOS [reference compound]
COS-7 cells
  Akt dependent NO release / activation of NOS construct: did not result in a further increase in NO release

## wild-type Akt: HA-tagged wild-type Akt (protein kinase B) [reference compound]
COS-7 cells
  NO2− accumulation on co-transfection with eNOS: markedly enhanced

B1: G2A eNOS: myristoylation, palmitoylation defective mutant of eNOS (protein)
chain: ANLKSVGQEPGPPCGLGLGLGLGLCGKQGPASPAPEPSRAPAPATPHAPDHSPAPNSPTLTRPPEGPKFPRVKNWELGSITYDTLCAQSQQDGPCTPRCCLGSLVLPRKLQTRPSPGPPPAEQLLSQARDFINQYYSSIKRSGSQAHEERLQEVEAEVASTGTYHLRESELVFGAKQAWRNAPRCVGRIQWGKLQVFDARDCSSAQEMFTYICNHIKYATNRGNLRSAITVFPQRAPGRGDFRIWNSQLVRYAGYRQQDGSVRGDPANVEITELCIQHGWTPGNGRFDVLPLLLQAPDEAPELFVLPPELVLEVPLEHPTLEWFAALGLRWYALPAVSNMLLEIGGLEFSAAPFSGWYMSTEIGTRNLCDPHRYNILEDVAVCMDLDTRTTSSLWKDKAAVEINLAVLHSFQLAKVTIVDHHAATVSFMKHLDNEQKARGGCPADWAWIVPPISGSLTPVFHQEMVNYILSPAFRYQPDPWKGSATKGAGITRKKTFKEVANAVKISASLMGTLMAKRVKATILYASETGRAQSYAQQLGRLFRKAFDPRVLCMDEYDVVSLEHEALVLVVTSTFGNGDPPENGESFAAALMEMSGPYNSSPRPEQHKSYKIRFNSVSCSDPLVSSWRRKRKESSNTDSAGALGTLRFCVFGLGSRAYPHFCAFARAVDTRLEELGGERLLQLGQGDELCGQEEAFRGWAKAAFQASCETFCVGEEAKAAAQDIFSPKRSWKRQRYRLSTQAEGLQLLPGLIHVHRRKMFQATVLSVENLQSSKSTRATILVRLDTAGQEGLQYQPGDHIGICPPNRPGLVEALLSRVEDPPPPTESVAVEQLEKGSPGGPPPSWVRDPRLPPCTLRQALTFFLDITSPPSPRLLRLLSTLAEEPSEQQELETLSQDPRRYEEWKWFRCPTLLEVLEQFPSVALPAPLLLTQLPLLQPRYYSVSSAPNAHPGEVHLTVAVLAYRTQDGLGPLHYGVCSTWLSQLKTGDPVPCFIRGAPSFRLPPDPYVPCILVGPGTGIAPFRGFWQERLHDIESKGLQPAPMTLVFGCRCSQLDHLYRDEVQDAQERGVFGRVLTAFSREPDSPKTYVQDILRTELAAEVHRVLCLERGHMFVCGDVTMATSVLQTVQRILATEGDMELDEAGDVIGVLRDQQRYHEDIFGLTLRTQEVTSRIRTQSFSLQERHLRGAVPWAFDPPGPDTPGP
COS-7 cells
  Akt dependent NO release / activation of NOS construct: did not activate

B2: S635, 1179A: double serine mutant of eNOS, serines 635 and 1179 mutated to alanine (protein)
chain: GNLKSVGQEPGPPCGLGLGLGLGLCGKQGPASPAPEPSRAPAPATPHAPDHSPAPNSPTLTRPPEGPKFPRVKNWELGSITYDTLCAQSQQDGPCTPRCCLGSLVLPRKLQTRPSPGPPPAEQLLSQARDFINQYYSSIKRSGSQAHEERLQEVEAEVASTGTYHLRESELVFGAKQAWRNAPRCVGRIQWGKLQVFDARDCSSAQEMFTYICNHIKYATNRGNLRSAITVFPQRAPGRGDFRIWNSQLVRYAGYRQQDGSVRGDPANVEITELCIQHGWTPGNGRFDVLPLLLQAPDEAPELFVLPPELVLEVPLEHPTLEWFAALGLRWYALPAVSNMLLEIGGLEFSAAPFSGWYMSTEIGTRNLCDPHRYNILEDVAVCMDLDTRTTSSLWKDKAAVEINLAVLHSFQLAKVTIVDHHAATVSFMKHLDNEQKARGGCPADWAWIVPPISGSLTPVFHQEMVNYILSPAFRYQPDPWKGSATKGAGITRKKTFKEVANAVKISASLMGTLMAKRVKATILYASETGRAQSYAQQLGRLFRKAFDPRVLCMDEYDVVSLEHEALVLVVTSTFGNGDPPENGESFAAALMEMSGPYNSSPRPEQHKSYKIRFNSVSCSDPLVSSWRRKRKEASNTDSAGALGTLRFCVFGLGSRAYPHFCAFARAVDTRLEELGGERLLQLGQGDELCGQEEAFRGWAKAAFQASCETFCVGEEAKAAAQDIFSPKRSWKRQRYRLSTQAEGLQLLPGLIHVHRRKMFQATVLSVENLQSSKSTRATILVRLDTAGQEGLQYQPGDHIGICPPNRPGLVEALLSRVEDPPPPTESVAVEQLEKGSPGGPPPSWVRDPRLPPCTLRQALTFFLDITSPPSPRLLRLLSTLAEEPSEQQELETLSQDPRRYEEWKWFRCPTLLEVLEQFPSVALPAPLLLTQLPLLQPRYYSVSSAPNAHPGEVHLTVAVLAYRTQDGLGPLHYGVCSTWLSQLKTGDPVPCFIRGAPSFRLPPDPYVPCILVGPGTGIAPFRGFWQERLHDIESKGLQPAPMTLVFGCRCSQLDHLYRDEVQDAQERGVFGRVLTAFSREPDSPKTYVQDILRTELAAEVHRVLCLERGHMFVCGDVTMATSVLQTVQRILATEGDMELDEAGDVIGVLRDQQRYHEDIFGLTLRTQEVTSRIRTQAFSLQERHLRGAVPWAFDPPGPDTPGP
eNOS
  NOS activity in lysates: 80.8±23.2 pmol L-citrulline generated/mg protein
Akt [2]
  Akt dependent phosphorylation of eNOS in intact cells: abolished Akt dependent phosphorylation of eNOS
COS-7 cells
  Akt dependent NO release / activation of NOS construct: abolishes Akt dependent NO release

B3: S1179A: bovine eNOS with serine 1179 mutated to alanine (protein)
chain: GNLKSVGQEPGPPCGLGLGLGLGLCGKQGPASPAPEPSRAPAPATPHAPDHSPAPNSPTLTRPPEGPKFPRVKNWELGSITYDTLCAQSQQDGPCTPRCCLGSLVLPRKLQTRPSPGPPPAEQLLSQARDFINQYYSSIKRSGSQAHEERLQEVEAEVASTGTYHLRESELVFGAKQAWRNAPRCVGRIQWGKLQVFDARDCSSAQEMFTYICNHIKYATNRGNLRSAITVFPQRAPGRGDFRIWNSQLVRYAGYRQQDGSVRGDPANVEITELCIQHGWTPGNGRFDVLPLLLQAPDEAPELFVLPPELVLEVPLEHPTLEWFAALGLRWYALPAVSNMLLEIGGLEFSAAPFSGWYMSTEIGTRNLCDPHRYNILEDVAVCMDLDTRTTSSLWKDKAAVEINLAVLHSFQLAKVTIVDHHAATVSFMKHLDNEQKARGGCPADWAWIVPPISGSLTPVFHQEMVNYILSPAFRYQPDPWKGSATKGAGITRKKTFKEVANAVKISASLMGTLMAKRVKATILYASETGRAQSYAQQLGRLFRKAFDPRVLCMDEYDVVSLEHEALVLVVTSTFGNGDPPENGESFAAALMEMSGPYNSSPRPEQHKSYKIRFNSVSCSDPLVSSWRRKRKESSNTDSAGALGTLRFCVFGLGSRAYPHFCAFARAVDTRLEELGGERLLQLGQGDELCGQEEAFRGWAKAAFQASCETFCVGEEAKAAAQDIFSPKRSWKRQRYRLSTQAEGLQLLPGLIHVHRRKMFQATVLSVENLQSSKSTRATILVRLDTAGQEGLQYQPGDHIGICPPNRPGLVEALLSRVEDPPPPTESVAVEQLEKGSPGGPPPSWVRDPRLPPCTLRQALTFFLDITSPPSPRLLRLLSTLAEEPSEQQELETLSQDPRRYEEWKWFRCPTLLEVLEQFPSVALPAPLLLTQLPLLQPRYYSVSSAPNAHPGEVHLTVAVLAYRTQDGLGPLHYGVCSTWLSQLKTGDPVPCFIRGAPSFRLPPDPYVPCILVGPGTGIAPFRGFWQERLHDIESKGLQPAPMTLVFGCRCSQLDHLYRDEVQDAQERGVFGRVLTAFSREPDSPKTYVQDILRTELAAEVHRVLCLERGHMFVCGDVTMATSVLQTVQRILATEGDMELDEAGDVIGVLRDQQRYHEDIFGLTLRTQEVTSRIRTQAFSLQERHLRGAVPWAFDPPGPDTPGP
eNOS
  NOS activity in lysates: 71.9±2.9 pmol L-citrulline generated/mg protein
Akt [3]
  Akt-dependent phosphorylation compared to the wild-type protein: markedly reduces
COS-7 cells
  Akt dependent NO release / activation of NOS construct: abolishes Akt dependent activation of eNOS
